Results on three molecules are retold here after patent US20190374606A1.

Assay [1] addresses TrkA (NIH-TrkA cells). As to the kind of experiment: flow cytometry competition on NIH-TrkA cells; 20 nM Biotin-NT3 tracer, 3-fold excess unlabeled competitor; value is the Biotin-NT3 binding remaining. On the technique in general: In flow cytometry, cells or beads pass a laser one at a time.
The target of assay [2] is TrkA (NIH-TrkA cells). Kind of assay: flow cytometry competition on NIH-TrkA cells; 20 nM Biotin-NT3 tracer, 3-fold excess unlabeled competitor; value is the Biotin-NT3 signal remaining.
The target of assay [3] is TrkC (NIH-TrkC cells). As to the kind of experiment: cell-based or functional assay.
In assay [4] the target is TrkC (NIH-TrkC cells). Kind of assay: flow cytometry competition on NIH-TrkC cells; 20 nM Biotin-NT3 tracer, 200 nM unlabeled competitor; value is the Biotin-NT3 binding remaining.
The target in assay [5] is TrkC (NIH-TrkC cells). Kind of assay: flow cytometry competition on NIH-TrkC cells; 20 nM Biotin-NT3 tracer, 200 nM unlabeled competitor; value is the Biotin-NT3 signal remaining.
The target of assay [6] is p75 (NIH-p75 cells). As to the kind of experiment: flow cytometry competition on NIH-p75 cells; 20 nM Biotin-NT3 tracer, 200 nM unlabeled competitor; value is the Biotin-NT3 signal remaining.
Assay [7] addresses p75 (NIH-p75 cells). As to the kind of experiment: flow cytometry competition on NIH-p75 cells; 20 nM Biotin-NT3 tracer, 200 nM unlabeled competitor; value is the Biotin-NT3 binding remaining.
Assay [8] deals with TrkC (NIH-TrkC cells). Kind of assay: flow cytometry (fluorescent avidin) on NIH-TrkC cells; 20 nM Biotin-NT3, no competitor.
The target in assay [9] is p75 (NIH-p75 cells). As to the kind of experiment: flow cytometry (fluorescent avidin) on NIH-p75 cells; 20 nM Biotin-NT3, no competitor.
Assay [10] deals with TrkA (NIH-TrkA cells). Kind of assay: flow cytometry (fluorescent avidin) on NIH-TrkA cells; 20 nM Biotin-NT3, no competitor.

B1: Wild type NT-3 (Neurotrophin 3, mature form) (ligand)
chain: YAEHKSHRGEYSVCDSESLWVTDKSSAIDIRGHQVTVLGEIKTGNSPVKQYFYETRCKEARPVKNGCRGIDDKHWNSQCKTSQTYVRALTSENNKLVGWRWIRIDTSCVCALSRKIGRT
As for B1, the % of maximal binding to TrkA with TrkA (NIH-TrkA cells) [1] is 36%. In the assay with TrkA (NIH-TrkA cells) [2], this molecule registered an NIH-TrkA MCF of 20. In the assay with TrkC (NIH-TrkC cells) [3], the % survival at 0.1 nM, TrkC-expressing cells in serum free media is 34%. In the assay with TrkC (NIH-TrkC cells) [4], this molecule yielded a % of maximal binding to TrkC of 18%. For the same molecule, the NIH-TrkC MCF in the assay with TrkC (NIH-TrkC cells) [5] was 25.

B2: NT-3 mutant (SEQ ID NO: 23) (ligand)
chain: YAEHKSHRGEYSVCASESLWVTDKSSAIDIRGHQVTVLGEIKTGNSPVKQYFYETRCKEARPVKNGCRGIDDKHWNSQCKTSQTYVRALTSENNKLVGWRWIRIDTSCVCALSAAIGRT
As to B2, in the assay with TrkA (NIH-TrkA cells) [2], the NIH-TrkA MCF turned out to be 16. This molecule also showed an NIH-p75 MCF in the assay with p75 (NIH-p75 cells) [6] of 69. This molecule came in with a % of maximal binding to TrkC with TrkC (NIH-TrkC cells) [4] of 13%. This molecule also returned a % of maximal binding to p75 with p75 (NIH-p75 cells) [7] of 89%.

B3: Biotin-NT-3 (wild type NT-3 covalently linked to biotin) (ligand)
chain: YAEHKSHRGEYSVCDSESLWVTDKSSAIDIRGHQVTVLGEIKTGNSPVKQYFYETRCKEARPVKNGCRGIDDKHWNSQCKTSQTYVRALTSENNKLVGWRWIRIDTSCVCALSRKIGRT
modifications: biotin, site not given
B3 yielded an NIH-TrkC MCF with TrkC (NIH-TrkC cells) [8] of 93. In the assay with p75 (NIH-p75 cells) [9], the NIH-p75 MCF is 76. This molecule had an NIH-TrkA MCF with TrkA (NIH-TrkA cells) [10] of 38.
